Reference: US20250313602A1 (published 2025)

Legend:
[1] = molecular target: T1, human IL-2Rβ protein (10696-H05H, Sino Biological) (human, UniProt P14784 27-239); test: ELISA
T1 chain: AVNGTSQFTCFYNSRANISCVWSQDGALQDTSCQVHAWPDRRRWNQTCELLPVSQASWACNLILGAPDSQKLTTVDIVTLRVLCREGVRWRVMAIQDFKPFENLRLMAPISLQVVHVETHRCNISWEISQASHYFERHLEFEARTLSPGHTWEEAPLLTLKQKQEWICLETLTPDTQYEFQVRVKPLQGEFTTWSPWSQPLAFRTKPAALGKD

[2] = molecular target: T2, human IL-2Rα protein (10165-H08H, Sino Biological) (human, UniProt P01589 22-213); test: ELISA
T2 chain: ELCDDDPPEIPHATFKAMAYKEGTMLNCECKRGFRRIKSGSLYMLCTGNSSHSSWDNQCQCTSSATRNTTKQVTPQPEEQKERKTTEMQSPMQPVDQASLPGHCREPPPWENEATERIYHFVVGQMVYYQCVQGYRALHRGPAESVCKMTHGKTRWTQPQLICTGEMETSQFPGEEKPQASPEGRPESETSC

EC50 [1]: 94 nM | EC50 [2]: 3.06 nM
B1: IL-2-Fc fusion protein (Fc fusion)
chain: APTSSSTKKTQLQLEHLLLDLQMILNGINNYKNPKLTAMLTFKFYMPKKATELKHLQCLEEELKPLEEVLNLAQSKNFHFDPRDVVSNINVFVLELKGSETTFMCEYADETATIVEFLNRWITFCQSIISTLTGGGGSGGGGSGGGGSEPKSCDKTHTCPPCPAPEAAGGPSVFLFPPKPKDTLYITREPEVTCVVVDVSHEDPEVKFNWYVDGVEVHNAKTKPREEQYNSTYRVVSVLTVLHQDWLNGKEYKCKVSNKALPAPIEKTISKAKGQPREPQVYTLPPSREEMTKNQVSLTCLVKGFYPSDIAVEWESNGQPENNYKTTPPVLDSDGSFFLYSKLTVDKSRWQQGNVFSCSVMHEALHNHYTQKSLSLSPK
